{
  "source": "the DeepSol protein solubility set",
  "test": "soluble on expression in E. coli; label from the status in PepcDB or PDB records",
  "data": [
    {"sequence": "MSLKPRVVDFDETWNKLLTTIKAVVMLEYVERATWNDRFSDIYALCVAYPEPLGERLYAETKIFLESHVRHLYRYWEEYSKGADYMDCLYRYLNTQYIKKNKLTEADIQYGYGGVDMNEPLMEIGELALDMWRKLMVEPLQNILIRMLLREIKNDRGGEDPNQKVIHGVINSFVHVEQYKKKFPLKFYQGIFVSPFLTETGEYYKQEASNLLQESNCSQYMEKVLGRLKDEEIRCRKYLHPSSYTKVIHECQQRMVADHLQFLHSECHSIIQQERKNDMANMYVLLRAVSSGLPHMIEELQKHIHDEGLRATSNLTQEHMPTLFVESVLEVHGKFVQLINTVLNGDQHFMSALDKALTSVVNYREPKSVCKAPELLAKYCDNLLKKSAKGMTENEVEDKLTSFITVFKYIDDKDVFQKFYARMLAKRLIHGLSMSMDSEEAMINKLKQACGYEFTSKLHRMYTDMSVSADLNNKFNNFIRNQDTVIDLGISFQIYVLQAGAWPLTQAPSSTFAIPQELEKSVQMFELFYSQHFSGRKLTWLHYLCTGEVKMNYLGKPYVAMVTTYQMAVLLAFNNSETVSYKELQDSTQMNEKELTKTIKSLLDVKMINHDSEKEDIDAESSFSLNMSFSSKRTKFKITTSMQKDTPQELEQTRSAVDEDRKMYLQAAIVRIMKARKVLRHNALIQEVISQSRARFNPSISMIKKCIEVLIDKQYIERSQASADEYSYVA", "values": [
      {"measurement": "soluble on expression in E. coli", "result": "soluble"}
    ]},
    {"sequence": "MGSLRLLADIQGEDLESLYGYAKQLFDGGEIAAARNVYQLLSTLDHWNFDYLLALGLCHQRLGAHNEAVVCFGRAGLIKVDDPRAAFYAGISYRLDGNAEYASKAFKAAINWCGEQIDYQAIKASAVDMLALQQEEVPLEHHHHHH", "values": [
      {"measurement": "soluble on expression in E. coli", "result": "not soluble"}
    ]},
    {"sequence": "MSLMSSDQQGKCPVDEETKKLWLREHGNEAHPGATAPGNQLECSANPQDNDKTPEYHTTVDLSQSREVSTIPRTNSDRNWIYPSEKQFYEAMMKKNWDPNSDDMKVVVPLHNSINERVWNYIKSWEDKQGGEACGGIKLTNFKGDSKKLTPRAWFRSRILHLAKPFDRHDWQIDRCGKTVDYVIDFYSTDLNDANSQQQPLIYLDVRPKLNSFEGFRLRFWKSLGFEGHHHHHH", "values": [
      {"measurement": "soluble on expression in E. coli", "result": "soluble"}
    ]},
    {"sequence": "GPGSMTTGQQQSIEGLRNELQQLEDSLMVREEALQRKRQQSERLNNELVDAYLSTTSQEESRASANEAYRTASRAKQVLENSETQSNESMWSNRDDYVSQLMAADEERKGVEADIGEVSSRIKELREDKVDAQKRLTVARLMSMLDDLQSLLKKKVYGPSGSEETRAQELLKTVQELSRERERTIHLLSKKEREMASLIDLKQRRIEELRKEFTRNVSMYADSNKRELLNVAQRIQGERHQLLEEMERLEEANRKITDVLMDTKYTTESAIKDRDTALSAVETMGVSTNPERECLQLRERIQKANAERRMYVLKMEEVQSSIDEDTVMYNTRMSKLRKEILFYQDETVRFEKENKDLKHLCDTLAGSLDGSH", "values": [
      {"measurement": "soluble on expression in E. coli", "result": "not soluble"}
    ]},
    {"sequence": "MPTFLECPHCQRLYSKHSLLIHEKNCIESMHKILEQEKLKMQNNQKRGRSKSGRRKKIRPAEMTTTERPRTRSLSRYNHENNGLRICFVCGEQYDDQVIEEHKEKCYGDWSILSKSLSVRFHIHQPKTLNTPSIDGTIDVARENMRAVQSSHNCQIVRCRFCNARISLQHAQSHQCVRFEPTIEFYC", "values": [
      {"measurement": "soluble on expression in E. coli", "result": "soluble"}
    ]},
    {"sequence": "MRVREPAVAGTFYPKDKEELNKLMDLLCGFEPKEKIKPKAILVPHAGYIYSGKTACEVYKRIEIPEKVVLLGPNHTGLGKPISVYSGDAWETPYGVVEIDGELREKILKYPYANPDEYAHLYEHSLEVQLPFLQRYARREFKILPIVVTFVEYEVAKDFGRFLGEVLKEEDALIVISSDMSHYVPAEEARKKDEILISAMERLNTEELYFKAVQYNITMCGVVPAVVGIESAKVLGATKGIVVDYSNSGDTTGDYSQVVAYLGMIFLLEHHHHHH", "values": [
      {"measurement": "soluble on expression in E. coli", "result": "not soluble"}
    ]},
    {"sequence": "MTLKELYAETRSHMQKSLEVLEHNLAGLRTGRANPALLLHLKVEYYGAHVPLNQIATVTAPDPRTLVVQSWDQNALKAIEKAIRDSDLGLNPSNKGDALYINIPPLTEERRKDLVRAVRQYAEEGRVAIRNIRREALDKLKKLAKELHLSEDETKRAEAEIQKITDEFIAKADQLAEKKEQEILG", "values": [
      {"measurement": "soluble on expression in E. coli", "result": "soluble"}
    ]},
    {"sequence": "MRGSHHHHHHTDPALRASKVTPQPKIGFVSLGCPKNLVDSERILTELRTEGYDVVPSYDDADMVIVNTCGFIDSAVQESLEAIGEALNENGKVIVTGCLGAKEDQIREVHPKVLEITGPHSYEQVLEHVHHYVPKPKHNPFLSLVPEQGVKLTPRHYAYLKISEGCNHRCTFCIIPSMRGDLVSRPIGEVLSEAKRLVDAGVKEILVISQDTSAYGVDVKHRTGFHNGEPVKTSMVSLCEQLSKLGIWTRLHYVYPYPHVDDVIPLMAEGKILPYLDIPLQHASPRILKLMKRPGSVDRQLARIKQWREICPELTLRSTFIVGFPGETEEDFQMLLDFLKEARLDRVGCFKYSPVEGADANALPDQVPEEVKEERWNRFMQLQQQISAERLQEKVGREILVIIDEVDEEGAIGRSMADAPEIDGAVYLNGETNVKPGDILRVKVEHADEYDLWGSRVGLCGR", "values": [
      {"measurement": "soluble on expression in E. coli", "result": "soluble"}
    ]},
    {"sequence": "APLATRQGKRPSKNLKARCSRKALHVNFKDMGWDDWIIAPLEYEAFHCEGLCEFPLRSHLEPTNHAVIQTLMNSMDPESTPPTCCVPTRLSPISILFIDSANNVVYKQYEDMVVESCGCR", "values": [
      {"measurement": "soluble on expression in E. coli", "result": "soluble"}
    ]},
    {"sequence": "SAAALRVAAVGARLSVLASGLRAAVRSLCSQATSVNERIENKRRTALLGGGQRRIDAQHKRGKLTARERISLLLDPGSFVESDMFVEHRCADFGMAADKNKFPGDSVVTGRGRINGRLVYVFSQDFTVFGGSLSGAHAQKICKIMDQAITVGAPVIGLNDSGGARIQEGVESLAGYADIFLRNVTASGVIPQISLIMGPCAGGAVYSPALTDFTFMVKDTSYLFITGPDVVKSVTNEDVTQEELGGAKTHTTMSGVAHRAFENDVDALCNLRDFFNYLPLSSQDPAPVRECHDPSDRLVPELDTIVPLESTKAYNMVDIIHSVVDEREFFEIMPNYAKNIIVGFARMNGRTVGIVGNQPKVASGCLDINSSVKGARFVRFCDAFNIPLITFVDVPGFLPGTAQEYGGIIRHGAKLLYAFAEATVPKVTVITRKAYGGAYDVMSSKHLCGDTNYAWPTAEIAVMGAKGAVEIIFKGHENVEAAQAEYIEKFANPFPAAVRGFVDDIIQPSSTRARICCDLDVLASKKVQRPWRKHANIPL", "values": [
      {"measurement": "soluble on expression in E. coli", "result": "soluble"}
    ]},
    {"sequence": "SNGILREVSGIASNSAFYWTNLTSKPYMGFRSGRNWSMTSGDIRTVRSQVPEVEFISPIMWGARSNKNVVFGDKSETYSIVGAEPDYFEISRVNILQGRMLNAVDDKLRRKVCMIGKEVKEKLFGTTDPIGQVLRVNGLYYRVIGVLEAKSNNVTIGSSPKRSVYLPYSVLQQISNSGNRVENFAVSAYPSADMKQMFKKTETIIRSRNQIAPDDDKALSKFDISAQFQLMNMIFTGINL", "values": [
      {"measurement": "soluble on expression in E. coli", "result": "not soluble"}
    ]},
    {"sequence": "MSLTRIQLVISDVDGTLVTTDKRLTDRARDAVSRLEASGVGFTLTSSRPPVGMRMYSDPLGITLPLGPFNGSSIVTPTLDVLEQHLIPDSAATISIELFERSGIDIWLFTNDNWYIRRDDGKYVVHEERTIRFSPTMAEDLTPFAGKACKIVGVSADFALLKRCEPELQAALGDRALAVRSQDYYLDVTPPGRSKGTFVATMAERLGIAADAIATIGDMQNDLPMFGVSGLPIAMGNAADDIKQQAAHVTGRNDDDGFAAAIDFILEHNARVGEGHHHHHH", "values": [
      {"measurement": "soluble on expression in E. coli", "result": "soluble"}
    ]},
    {"sequence": "MRSLARGVTTNISKLIEARPKNTGQTVYLTHVKWVTGKSQLEHYFKRYGSIQSVNMFYDPDTGLHRGFASITFDSKDGANKAIEQRPHVIDGDRVDVEPYIPLISKNKKKDLML", "values": [
      {"measurement": "soluble on expression in E. coli", "result": "not soluble"}
    ]},
    {"sequence": "MGSDKIHHHHHHMLEQQATIVDVNESNLNQVLEHSATLPVLFYFWSARSQHCVELEPVLDKLAQEYAGQFVLAKVDCDAEQRVAAQFGLRSIPTVYLFKDGQPLDGFQGPQPEEAVRELLKRALPKEEELKVAQAQQLIQEDKLPEAMQLLKDAWQLSQQRSDIGLMLAEVQIQIKRSEDAEAVLAAIPLQDQDTRYHSLVAQIELLKQAADTPEIQHLQQQLDADPQNADLAVQLALQLHQVSRNEEALELLMGFLKKDLAVANGSARKTLMDIMAALGTSDALAARYRRQLYSLLY", "values": [
      {"measurement": "soluble on expression in E. coli", "result": "not soluble"}
    ]},
    {"sequence": "MVVLGRIAGPHGIRGQIKVIPFTEYVDGLMEYPVWCLSRDEKNWQIVRPATFFIHDNLLIVTLTGYSDRTSASELKGLLVAVPRSQLPPLSKDGEDGYYWTDLIGISVVNMQGEPLGTVAGLFETGANDVLRVRLSGSSKDELIPFVDQVIRQVDLESRQITVDWELGYLEHHHHHH", "values": [
      {"measurement": "soluble on expression in E. coli", "result": "not soluble"}
    ]}
  ]
}
